Measured values reported in publication PMC10746276, “CsrA coordinates the expression of ribosome hibernation and anti-σ factor proteins”.
Where a chain is given by its changes, count along the chain named.

Assays:
[1] = target: T1, CsrA-His6 (Escherichia coli, UniProt P69913 1-61); assay: EMSA; side-by-side with A(-15)G; differs from 95 nM in Fig. 6, RNA may differ; EMSA: 0.1 nM RNA, 10 mM MgCl2, 100 mM KCl, 32.5 ng yeast RNA, 20 mM DTT, 7.5% glycerol, 4 U SUPERasin, 30 min 37 C (pH not given); footprint: 2 nM RNA, 10 mM Tris-HCl pH 7.5, 10 mM MgCl2, 100 mM KCl, yeast RNA, acetylated BSA, 37 C; details: protein: recombinant; tags: His6 (C-terminal by name); chain copies: 2; label: 5'-32P
[2] = target: T1, CsrA-His6; assay: EMSA; EMSA: 0.1 nM RNA, 10 mM MgCl2, 100 mM KCl, 32.5 ng yeast RNA, 20 mM DTT, 7.5% glycerol, 4 U SUPERasin, 30 min 37 C (pH not given); footprint: 2 nM RNA, 10 mM Tris-HCl pH 7.5, 10 mM MgCl2, 100 mM KCl, yeast RNA, acetylated BSA, 37 C; details: protein: recombinant; tags: His6 (C-terminal by name); chain copies: 2; label: 5'-32P
[3] = target: T1, CsrA-His6; assay: EMSA; no effect on affinity vs WT; EMSA: 0.1 nM RNA, 10 mM MgCl2, 100 mM KCl, 32.5 ng yeast RNA, 20 mM DTT, 7.5% glycerol, 4 U SUPERasin, 30 min 37 C (pH not given); footprint: 2 nM RNA, 10 mM Tris-HCl pH 7.5, 10 mM MgCl2, 100 mM KCl, yeast RNA, acetylated BSA, 37 C; details: protein: recombinant; tags: His6 (C-terminal by name); chain copies: 2; label: 5'-32P
[4] = target: T1, CsrA-His6; assay: EMSA; Hill coefficient 4.5; EMSA: 0.1 nM RNA, 10 mM MgCl2, 100 mM KCl, 32.5 ng yeast RNA, 20 mM DTT, 7.5% glycerol, 4 U SUPERasin, 30 min 37 C (pH not given); footprint: 2 nM RNA, 10 mM Tris-HCl pH 7.5, 10 mM MgCl2, 100 mM KCl, yeast RNA, acetylated BSA, 37 C; details: protein: recombinant; tags: His6 (C-terminal by name); chain copies: 2; label: 5'-32P; hairpin (mFold)

T1 sequence (P69913 whole entry): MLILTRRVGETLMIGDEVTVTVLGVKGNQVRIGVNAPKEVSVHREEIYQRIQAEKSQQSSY

B1: yqjC leader WT (ssRNA)
RNA: GGGCGGUGGUUAACACUACCGCUUCGUUGUCUGGACAAUCGUUCCUUUGUAAUAGGUCCGAAUCACAAUGGAAGGUUCAAGAAUGAAAUACCGCAUCGCUUUAGCUGUU
With B1 the Kd [1] was 15 ± 9 nM and the Kd [2] was 95 ± 7 nM.

B2: yqjC leader GGA1 mutant (GGA to AAA) (ssRNA)
RNA: B1 RNA with G33A, G34A
B2: binds [3].

Work on GCGCAGGAAGAGCUGAAAAAGCUGGAAGCGC (structured_RNA) [yqjD BS2-BS3 fragment WT] yielded a Kd [4] of 89 ± 6 nM.

GGGUUUUACGCAAAUCCAGAACGAGAAUGUCUAAUCAG (ssRNA) [elaB leader GGA to CCA]: no binding [2].

Binder GGGUUUUACGCAAAUGGAGAACGAGAAUGUCUAAUCAG (ssRNA) [elaB leader WT] has a Kd [2] of 20 ± 8 nM.
